{"source": "patent US11672792B2", "about": "“Topical formulations comprising montelukast and combinations with mussel adhesive proteins” (ENLITISA (SHANGHAI) PHARMACEUTICAL CO., LTD, priority 2017, dated 2023)", "molecules": {"B1": {"name": "rhEGF: Recombinant Human Epidermal Growth Factor, 5000 IU/mL in normal saline (protein, UniProt P01133 23-1207, looked up)", "Pro-epidermal growth factor": "PQHWSCPEGTLAGNGNSTCVGPAPFLIFSHGNSIFRIDTEGTNYEQLVVDAGVSVIMDFHYNEKRIYWVDLERQLLQRVFLNGSRQERVCNIEKNVSGMAINWINEEVIWSNQQEGIITVTDMKGNNSHILLSALKYPANVAVDPVERFIFWSSEVAGSLYRADLDGVGVKALLETSEKITAVSLDVLDKRLFWIQYNREGSNSLICSCDYDGGSVHISKHPTQHNLFAMSLFGDRIFYSTWKMKTIWIANKHTGKDMVRINLHSSFVPLGELKVVHPLAQPKAEDDTWEPEQKLCKLRKGNCSSTVCGQDLQSHLCMCAEGYALSRDRKYCEDVNECAFWNHGCTLGCKNTPGSYYCTCPVGFVLLPDGKRCHQLVSCPRNVSECSHDCVLTSEGPLCFCPEGSVLERDGKTCSGCSSPDNGGCSQLCVPLSPVSWECDCFPGYDLQLDEKSCAASGPQPFLLFANSQDIRHMHFDGTDYGTLLSQQMGMVYALDHDPVENKIYFAHTALKWIERANMDGSQRERLIEEGVDVPEGLAVDWIGRRFYWTDRGKSLIGRSDLNGKRSKIITKENISQPRGIAVHPMAKRLFWTDTGINPRIESSSLQGLGRLVIASSDLIWPSGITIDFLTDKLYWCDAKQSVIEMANLDGSKRRRLTQNDVGHPFAVAVFEDYVWFSDWAMPSVMRVNKRTGKDRVRLQGSMLKPSSLVVVHPLAKPGADPCLYQNGGCEHICKKRLGTAWCSCREGFMKASDGKTCLALDGHQLLAGGEVDLKNQVTPLDILSKTRVSEDNITESQHMLVAEIMVSDQDDCAPVGCSMYARCISEGEDATCQCLKGFAGDGKLCSDIDECEMGVPVCPPASSKCINTEGGYVCRCSEGYQGDGIHCLDIDECQLGEHSCGENASCTNTEGGYTCMCAGRLSEPGLICPDSTPPPHLREDDHHYSVRNSDSECPLSHDGYCLHDGVCMYIEALDKYACNCVVGYIGERCQYRDLKWWELRHAGHGQQQKVIVVAVCVVVLVMLLLLSLWGAHYYRTQKLLSKNPKNPYEESSRDVRSRRPADTEDGMSSCPQPWFVVIKEHQDLKNGGQPVAGEDGQAADGSMQPTSWRQEPQLCGMGTEQGCWIPVSSDKGSCPQVMERSFHMPSYGTQTLEGGVEKPHSLLSANPLWQQRALDPPHQMELTQ", "modifications": "Pro-epidermal growth factor", "notes": "Recombinant Human Epidermal Growth Factor, 5000 IU/mL in normal saline"}}, "key": {"[1]": {"test_system": "full thickness skin wounds", "assay": "Acute Wound Model (Example 6)", "format": "in vivo, C57BL/6 mice", "description": "6-8 weeks old male C57BL/6 mice were supplied by Changzhou Cvens Experimental Animal Co. Ltd. Prior to any experiments being conducted, mice were housed under standardized conditions (at a constant temperature or 22±2° C., with alternating 12 hour periods of light and darkness), and were fed on a standard mouse diet with water, for about a week. […] The hair on the back was shaved by a baby hair shaver and depilated with cream. […] EMS skin biopsy punch (Electron Microscopy Sciences, P.O. […] Full thickness skin was removed and the depth reached the fascia. The wounds left open without suture. […] The model group was given same amount of normal saline. Recombinant Human Epidermal Growth Factor (rhEGF, Shanghai Haohai Biological Technology Co. Ltd, Shanghai, China) was purchased and prepared according to the manufacturer's instructions. Lyophilized rhEGF powder (100000 IU/vial) was dissolved in 20 mL of normal saline to make a solution with a 5000 IU/mL concentration. […] MedChemExpress, MCE China, Shanghai, China) was obtained in a powder form and was dissolved in ultrapure water to obtain solutions with concentrations as described in Table 22 (L, M and H indicate low, medium and high montelukast doses, respectively) Wounds were wrapped up with transparent dresser after drug administration. Photographs were taken for each wound every other day from Day 0. Photos were scanned into a computer, and wound areas calculated using ImageJ image analysis software (National Institutes of Health, […]). The unhealed wound area was expressed as a percentage of the original wound area: At/A0×100%, where A0 and At refer to the initial area at Day 0 and the wound area at the date of measurement (time t), respectively. […] Half of the tissue was preserved in 10% neutral buffered formalin (Nanchang […] Experimental Equipment Co., Ltd., Nanchang, […] Provence, China), and analyzed by histological embedding in paraffin wax, sectioning and staining. HE and Masson stained paraffin sections were analyzed under an optical microscope. Skin regeneration, fibroblastic proliferation, collagen regeneration scores and inflammation scores were estimated. The rest of the samples were stored at -80° C. for further analysis. […] The supernatant was collected, and the extracted protein was used for ELISA analysis using standard ELISA test kits and an ELISA reader (SH-1000 Hitachi, Japan). […] (Beijing, China)."}, "[2]": {"test_system": "full thickness skin wounds in diabetic mice", "assay": "Diabetic Wound Model (Example 7)", "format": "in vivo, db/db mice (C57BL/KsJ-db/db)", "settings": "Day 6; wound tissue; rhEGF 100 IU/each, Mon 100 μg/each, once daily topically", "description": "A similar experiment with essentially the same protocol to that described in Example 6 above was carried out on 8 to 12 week-old male db/db mice (C57BL/KsJ-db/db, with a body weight of 35-45 g/mouse; supplied by Changzhou Cvens Experimental Animal Co. Ltd.).\nAn EMS skin biopsy punch with a […] diameter was used to make wounds.\nDifferent drugs were administrated topically at 20 μL/wound, once daily from Day 0 to Day 18. The model group was given same amount of normal saline.\nSamples were taken on Day 6, Day 12 and Day 18 post-wound inflictions.\nHistological specimens were analyzed and skin regeneration, fibroblast proliferation, collagen regeneration scores (Masson score) and inflammation scores were estimated as follows.\nThe HE and Masson stained slices were observed under an optical microscope and were scored (1, 2 or 3 points) according to the following criteria. […]\nFibroblast proliferation was scored as the following criteria:\nInflammation was scored as the following criteria:\nCollagen deposition score criterion for the Masson stained sample were as follows. […] No clear blue staining was given 0 points; blue fiber appearing in a scattered pattern was scored as 1 points; if more blue fiber appeared, this was scored as 2 points, and a diffuse blue colour was given 3 points."}, "[3]": {"settings": "wound tissue, rhEGF 100 IU/wound"}}, "note": "“And” between values parts separate entries of the source, which are not always exact repeats. Identical values can stand only once."}
{"molecule": "B1", "values": [{"measurement": "remaining wound area versus the initial wound", "setting": "[1]; Day 2, rhEGF 100 IU/wound once daily topically", "result": "85.73 ± 10.29", "unit": "%"}, {"measurement": "remaining wound area versus the initial wound", "setting": "[1]; Day 4, rhEGF 100 IU/wound", "result": "68.15 ± 16.47", "unit": "%"}, {"measurement": "remaining wound area versus the initial wound", "setting": "[1]; Day 6, rhEGF 100 IU/wound", "result": "30.85 ± 1.87", "unit": "%"}, {"measurement": "remaining wound area versus the initial wound", "setting": "[1]; Day 8, rhEGF 100 IU/wound", "result": "16.93 ± 4.03", "unit": "%"}, {"measurement": "remaining wound area versus the initial wound", "setting": "[1]; Day 12, rhEGF 100 IU/wound", "result": "5.02 ± 3.03", "unit": "%"}, {"measurement": "Hyp content (μg/mg tissue weight), single animals", "setting": "[1]; [3]", "result": "6.54 μg/mg tissue weight and 4.89 μg/mg tissue weight and 5.39 μg/mg tissue weight and 5.45 μg/mg tissue weight"}, {"measurement": "Hyp content, Mean (n = 4)", "setting": "[1]; [3]", "result": 5.57, "unit": "μg/mg tissue weight"}, {"measurement": "VEGF content, Mean", "setting": "[2]", "result": 4.55, "unit": "pg/g"}]}
